Assay results: patent US20130005646A1 (Novo Nordisk, published 2013)
Starred links: 1 amine or outer side, 2 acyl side, 3 side chain; linkers in the order of their positions; H or OH if unused. Positions of bridges follow the written chain, without caps; N, C: chain ends. Groups on a side chain read outwards from the residue. No end group written: not given here. *: point of attachment. X1 = (S)‑4‑Carboxy‑4‑(19-carboxynonadecanoylamino)butyryl, O=C(O)CCCCCCCCCCCCCCCCCCC(=O)N[C@@H](CCC(=O)*)C(=O)O; C20 diacid = O=C(O)CCCCCCCCCCCCCCCCCCC(=O)*; γGlu = O=C(O)[C@H](CCC(=O)[*:2])N[*:1]; AEEA = NCCOCCOCC(=O)O

T1: human amylin 3(a) receptor (human calcitonin receptor + RAMP-3) (human, UniProt P30988 25-474; O60896 24-148)
T1 sequence (looked up) 1: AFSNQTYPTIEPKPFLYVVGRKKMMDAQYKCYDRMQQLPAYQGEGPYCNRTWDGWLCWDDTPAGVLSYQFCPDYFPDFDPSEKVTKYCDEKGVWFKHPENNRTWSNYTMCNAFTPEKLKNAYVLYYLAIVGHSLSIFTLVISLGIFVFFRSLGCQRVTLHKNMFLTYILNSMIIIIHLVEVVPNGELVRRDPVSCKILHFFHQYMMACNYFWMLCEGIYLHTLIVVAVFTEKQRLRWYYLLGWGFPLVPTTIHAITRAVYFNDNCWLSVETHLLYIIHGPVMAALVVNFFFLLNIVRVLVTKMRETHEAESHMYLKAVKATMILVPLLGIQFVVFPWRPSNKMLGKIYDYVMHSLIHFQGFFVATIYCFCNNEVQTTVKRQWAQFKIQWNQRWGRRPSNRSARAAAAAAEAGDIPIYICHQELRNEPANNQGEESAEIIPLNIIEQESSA
T1 sequence (looked up) 2: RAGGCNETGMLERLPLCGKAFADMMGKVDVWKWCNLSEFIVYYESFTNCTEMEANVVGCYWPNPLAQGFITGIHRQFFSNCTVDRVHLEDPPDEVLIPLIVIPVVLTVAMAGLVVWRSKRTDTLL

T2: human calcitonin (a) receptor (human, UniProt P30988 25-474)
T2 sequence (looked up): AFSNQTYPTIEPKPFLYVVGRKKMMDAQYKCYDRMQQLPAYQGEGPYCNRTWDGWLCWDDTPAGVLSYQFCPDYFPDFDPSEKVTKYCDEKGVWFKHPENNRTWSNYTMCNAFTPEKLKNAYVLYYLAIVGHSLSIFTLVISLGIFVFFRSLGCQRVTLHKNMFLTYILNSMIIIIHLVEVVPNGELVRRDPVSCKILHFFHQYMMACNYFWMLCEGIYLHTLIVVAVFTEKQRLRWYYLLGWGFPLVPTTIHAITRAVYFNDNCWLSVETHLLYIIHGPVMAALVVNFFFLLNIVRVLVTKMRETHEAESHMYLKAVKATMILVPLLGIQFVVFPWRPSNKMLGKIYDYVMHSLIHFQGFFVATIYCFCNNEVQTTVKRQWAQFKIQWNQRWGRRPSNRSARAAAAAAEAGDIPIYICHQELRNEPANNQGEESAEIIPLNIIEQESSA


Legend:
[1] = target: T1, human amylin 3(a) receptor (human …); experiment: cell-based or functional assay
[2] = target: T2, human calcitonin (a) receptor; experiment: cell-based or functional assay

Amylin receptor human EC50 [1] [nM] | CTa receptor human EC50 [2] [nM] | Binder
1.51 | 0.496 | {C20 diacid-γGlu}-ECNTATCATQRLAEFLVHSSQNFGPILPPTNVGSQTP-NH2 (disulfide 2-7; SMILES CC[C@H](C)[C@H](NC(=O)[C@@H]1CCCN1C(=O)CNC(=O)[C@H](Cc1ccccc1)NC(=O)[C@H](CC(N)=O)NC(=O)[C@H](CCC(N)=O)NC(=O)[C@H](CO)NC(=O)[C@H](CO)NC(=O)[C@H](Cc1c[nH]cn1)NC(=O)[C@@H](NC(=O)[C@H](CC(C)C)NC(=O)[C@H](Cc1ccccc1)NC(=O)[C@H](CCC(=O)O)NC(=O)[C@H](C)NC(=O)[C@H](CC(C)C)NC(=O)[C@H](CCCNC(=N)N)NC(=O)[C@H](CCC(N)=O)NC(=O)[C@@H](NC(=O)[C@H](C)NC(=O)[C@@H]1CSSC[C@H](NC(=O)[C@H](CCC(=O)O)NC(=O)CC[C@H](NC(=O)CCCCCCCCCCCCCCCCCCC(=O)O)C(=O)O)C(=O)N[C@@H](CC(N)=O)C(=O)N[C@@H]([C@@H](C)O)C(=O)N[C@@H](C)C(=O)N[C@@H]([C@@H](C)O)C(=O)N1)[C@@H](C)O)C(C)C)C(=O)N[C@@H](CC(C)C)C(=O)N1CCC[C@H]1C(=O)N1CCC[C@H]1C(=O)N[C@H](C(=O)N[C@@H](CC(N)=O)C(=O)N[C@H](C(=O)NCC(=O)N[C@@H](CO)C(=O)N[C@@H](CCC(N)=O)C(=O)N[C@H](C(=O)N1CCC[C@H]1C(N)=O)[C@@H](C)O)C(C)C)[C@@H](C)O)
0.091 | 0.045 | {C20 diacid-γGlu}-KCNTATCATQRLAEFLHHSSQNFGPILPPTNVGSQTP-NH2 (disulfide 2-7; SMILES CC[C@H](C)[C@H](NC(=O)[C@@H]1CCCN1C(=O)CNC(=O)[C@H](Cc1ccccc1)NC(=O)[C@H](CC(N)=O)NC(=O)[C@H](CCC(N)=O)NC(=O)[C@H](CO)NC(=O)[C@H](CO)NC(=O)[C@H](Cc1c[nH]cn1)NC(=O)[C@H](Cc1c[nH]cn1)NC(=O)[C@H](CC(C)C)NC(=O)[C@H](Cc1ccccc1)NC(=O)[C@H](CCC(=O)O)NC(=O)[C@H](C)NC(=O)[C@H](CC(C)C)NC(=O)[C@H](CCCNC(=N)N)NC(=O)[C@H](CCC(N)=O)NC(=O)[C@@H](NC(=O)[C@H](C)NC(=O)[C@@H]1CSSC[C@H](NC(=O)[C@H](CCCCN)NC(=O)CC[C@H](NC(=O)CCCCCCCCCCCCCCCCCCC(=O)O)C(=O)O)C(=O)N[C@@H](CC(N)=O)C(=O)N[C@@H]([C@@H](C)O)C(=O)N[C@@H](C)C(=O)N[C@@H]([C@@H](C)O)C(=O)N1)[C@@H](C)O)C(=O)N[C@@H](CC(C)C)C(=O)N1CCC[C@H]1C(=O)N1CCC[C@H]1C(=O)N[C@H](C(=O)N[C@@H](CC(N)=O)C(=O)N[C@H](C(=O)NCC(=O)N[C@@H](CO)C(=O)N[C@@H](CCC(N)=O)C(=O)N[C@H](C(=O)N1CCC[C@H]1C(N)=O)[C@@H](C)O)C(C)C)[C@@H](C)O)
0.301 | 0.111 | KCNTATCATQRLAEFLHHSSNNFGK([AEEA-AEEA-γGlu-19‑carboxyheptadecanoyl])ILSSTNVGSHTY-NH2 (disulfide 2-7)
0.107 | 0.0585 | {C20 diacid-γGlu}-KCNTATCATQRLAEFLVHSSQNFGPILPPTNVGSQTP-NH2 (disulfide 2-7; SMILES CC[C@H](C)[C@H](NC(=O)[C@@H]1CCCN1C(=O)CNC(=O)[C@H](Cc1ccccc1)NC(=O)[C@H](CC(N)=O)NC(=O)[C@H](CCC(N)=O)NC(=O)[C@H](CO)NC(=O)[C@H](CO)NC(=O)[C@H](Cc1c[nH]cn1)NC(=O)[C@@H](NC(=O)[C@H](CC(C)C)NC(=O)[C@H](Cc1ccccc1)NC(=O)[C@H](CCC(=O)O)NC(=O)[C@H](C)NC(=O)[C@H](CC(C)C)NC(=O)[C@H](CCCNC(=N)N)NC(=O)[C@H](CCC(N)=O)NC(=O)[C@@H](NC(=O)[C@H](C)NC(=O)[C@@H]1CSSC[C@H](NC(=O)[C@H](CCCCN)NC(=O)CC[C@H](NC(=O)CCCCCCCCCCCCCCCCCCC(=O)O)C(=O)O)C(=O)N[C@@H](CC(N)=O)C(=O)N[C@@H]([C@@H](C)O)C(=O)N[C@@H](C)C(=O)N[C@@H]([C@@H](C)O)C(=O)N1)[C@@H](C)O)C(C)C)C(=O)N[C@@H](CC(C)C)C(=O)N1CCC[C@H]1C(=O)N1CCC[C@H]1C(=O)N[C@H](C(=O)N[C@@H](CC(N)=O)C(=O)N[C@H](C(=O)NCC(=O)N[C@@H](CO)C(=O)N[C@@H](CCC(N)=O)C(=O)N[C@H](C(=O)N1CCC[C@H]1C(N)=O)[C@@H](C)O)C(C)C)[C@@H](C)O) [N-alpha-[(S)-4-Carboxy-4-(19-carboxynonadecanoylamino)butyryl]-[Glu14,Gln21,Gln35,Pro37]-pramlintide]
0.12 | 0.072 | {C20 diacid-γGlu}-GCNTATCATQRLAEFLHHSSQNFGPILPPTNVGSQTP-NH2 (disulfide 2-7; SMILES CC[C@H](C)[C@H](NC(=O)[C@@H]1CCCN1C(=O)CNC(=O)[C@H](Cc1ccccc1)NC(=O)[C@H](CC(N)=O)NC(=O)[C@H](CCC(N)=O)NC(=O)[C@H](CO)NC(=O)[C@H](CO)NC(=O)[C@H](Cc1c[nH]cn1)NC(=O)[C@H](Cc1c[nH]cn1)NC(=O)[C@H](CC(C)C)NC(=O)[C@H](Cc1ccccc1)NC(=O)[C@H](CCC(=O)O)NC(=O)[C@H](C)NC(=O)[C@H](CC(C)C)NC(=O)[C@H](CCCNC(=N)N)NC(=O)[C@H](CCC(N)=O)NC(=O)[C@@H](NC(=O)[C@H](C)NC(=O)[C@@H]1CSSC[C@H](NC(=O)CNC(=O)CC[C@H](NC(=O)CCCCCCCCCCCCCCCCCCC(=O)O)C(=O)O)C(=O)N[C@@H](CC(N)=O)C(=O)N[C@@H]([C@@H](C)O)C(=O)N[C@@H](C)C(=O)N[C@@H]([C@@H](C)O)C(=O)N1)[C@@H](C)O)C(=O)N[C@@H](CC(C)C)C(=O)N1CCC[C@H]1C(=O)N1CCC[C@H]1C(=O)N[C@H](C(=O)N[C@@H](CC(N)=O)C(=O)N[C@H](C(=O)NCC(=O)N[C@@H](CO)C(=O)N[C@@H](CCC(N)=O)C(=O)N[C@H](C(=O)N1CCC[C@H]1C(N)=O)[C@@H](C)O)C(C)C)[C@@H](C)O)
0.482 | 0.889 | KCNTATCATQRLANFLHHSSK([AEEA-AEEA-γGlu-19‑carboxyheptadecanoyl])NFGPILSPTNVGSHTY-NH2 (disulfide 2-7)
0.0415 | 0.022 | X1-HCNTATCATQRLAEFLVRSSNNFGPILPPTNVGSNTP-NH2 (disulfide 2-7; SMILES CC[C@H](C)[C@H](NC(=O)[C@@H]1CCCN1C(=O)CNC(=O)[C@H](Cc1ccccc1)NC(=O)[C@H](CC(N)=O)NC(=O)[C@H](CC(N)=O)NC(=O)[C@H](CO)NC(=O)[C@H](CO)NC(=O)[C@H](CCCNC(=N)N)NC(=O)[C@@H](NC(=O)[C@H](CC(C)C)NC(=O)[C@H](Cc1ccccc1)NC(=O)[C@H](CCC(=O)O)NC(=O)[C@H](C)NC(=O)[C@H](CC(C)C)NC(=O)[C@H](CCCNC(=N)N)NC(=O)[C@H](CCC(N)=O)NC(=O)[C@@H](NC(=O)[C@H](C)NC(=O)[C@@H]1CSSC[C@H](NC(=O)[C@H](Cc2c[nH]cn2)NC(=O)CC[C@H](NC(=O)CCCCCCCCCCCCCCCCCCC(=O)O)C(=O)O)C(=O)N[C@@H](CC(N)=O)C(=O)N[C@@H]([C@@H](C)O)C(=O)N[C@@H](C)C(=O)N[C@@H]([C@@H](C)O)C(=O)N1)[C@@H](C)O)C(C)C)C(=O)N[C@@H](CC(C)C)C(=O)N1CCC[C@H]1C(=O)N1CCC[C@H]1C(=O)N[C@H](C(=O)N[C@@H](CC(N)=O)C(=O)N[C@H](C(=O)NCC(=O)N[C@@H](CO)C(=O)N[C@@H](CC(N)=O)C(=O)N[C@H](C(=O)N1CCC[C@H]1C(N)=O)[C@@H](C)O)C(C)C)[C@@H](C)O) [N-alpha-[(S)-4-Carboxy-4-(19-carboxynonadecanoylamino)butyryl]-[His1,Glu14,Arg18,Pro37]-pramlintide]
0.199 | 0.114 | KCNTATCATQRLANFLHHSSNNFGK([AEEA-AEEA-γGlu-19‑carboxyheptadecanoyl])ILSSTNVGSHTY-NH2 (disulfide 2-7)
0.103 | 0.097 | {C20 diacid-γGlu}-KCNTATCATQRLAEFLHHSSNNFGPILPPTNVGSQTP-NH2 (disulfide 2-7; SMILES CC[C@H](C)[C@H](NC(=O)[C@@H]1CCCN1C(=O)CNC(=O)[C@H](Cc1ccccc1)NC(=O)[C@H](CC(N)=O)NC(=O)[C@H](CC(N)=O)NC(=O)[C@H](CO)NC(=O)[C@H](CO)NC(=O)[C@H](Cc1c[nH]cn1)NC(=O)[C@H](Cc1c[nH]cn1)NC(=O)[C@H](CC(C)C)NC(=O)[C@H](Cc1ccccc1)NC(=O)[C@H](CCC(=O)O)NC(=O)[C@H](C)NC(=O)[C@H](CC(C)C)NC(=O)[C@H](CCCNC(=N)N)NC(=O)[C@H](CCC(N)=O)NC(=O)[C@@H](NC(=O)[C@H](C)NC(=O)[C@@H]1CSSC[C@H](NC(=O)[C@H](CCCCN)NC(=O)CC[C@H](NC(=O)CCCCCCCCCCCCCCCCCCC(=O)O)C(=O)O)C(=O)N[C@@H](CC(N)=O)C(=O)N[C@@H]([C@@H](C)O)C(=O)N[C@@H](C)C(=O)N[C@@H]([C@@H](C)O)C(=O)N1)[C@@H](C)O)C(=O)N[C@@H](CC(C)C)C(=O)N1CCC[C@H]1C(=O)N1CCC[C@H]1C(=O)N[C@H](C(=O)N[C@@H](CC(N)=O)C(=O)N[C@H](C(=O)NCC(=O)N[C@@H](CO)C(=O)N[C@@H](CCC(N)=O)C(=O)N[C@H](C(=O)N1CCC[C@H]1C(N)=O)[C@@H](C)O)C(C)C)[C@@H](C)O) [N-alpha-[(S)-4-Carboxy-4-(19-carboxynonadecanoylamino)butyryl]-[Glu14,His17,Gln35,Pro37]-pramlintide]
